System: Saccharomyces cerevisiae
Assay: transcriptional activation domain activity (GFP:mCherry ratio, weighted mean of sorted bins, harmonized to initial dataset scale) (arbitrary fluorescence ratio units); higher = stronger transcriptional activation
Settings: beta-estradiol 1 µM; induction time 4 h
Outline: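 Protein tiles carrying barcodes and fused to an estradiol-inducible synthetic transcription factor were placed at the URA3 locus of yeast diploids with a GFP reporter. Following 4 hours at 30 °C in SC with 1 uM beta-estradiol, cells were sorted into 8 GFP:mCherry bins, barcodes were sequenced, and tiles with fewer than 50 reads were discarded. Activation activity is given as the read-weighted mean of bin median fluorescence, averaged across barcodes and linearly mapped to the initial dataset scale.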

In the case of “RLHILVGFVTVAEVTNIVFITRSSWRILIGGVERPDLILIPPATSVGTPILNG”, the “transcriptional activation domain activity” value is reported as 35000.

For “RLHTLRMPISWPLLGLARRRLASLRTFAVWIKPRHSSLTAAERLAFTQFLAAH”, the “transcriptional activation domain activity” value was 79000.

For “RLILILSLLVCWAAAIIDCVFVIIAGVTGVLQPQSRYLVLLLPMLFTNFLATL”, the “transcriptional activation domain activity” value was 57300.

In the case of “RLIYGDYVSYHFLKMLHKVHDQISLAYIHHGLELVMWSCKVLVLLFKQLFESY”, the “transcriptional activation domain activity” value is reported as 67900.

“RLKLFIMVVFCLGTIHEYALIGMYWSILISCRRSMSLECTTKLPWQMVLGVFM” was tested, and the “transcriptional activation domain activity” value was 49800.

With “RLLIVFAWMCRLGCWIEMDHEARLVLLKFLATFKANSNNVISYKLDQYYLTGL” the “transcriptional activation domain activity” value was 80100.

For “RLLNALLLPPYLEQIMYFGTLACFDAWLYTFTILPMRFISAVGVLVKWWLYLI”, the “transcriptional activation domain activity” value was 47500.

“RLLNKTRQCHDDGIAVLQNSIETISTTLVLWTHREVIGPLQLNLNWVAMSFAC” was tested, and the “transcriptional activation domain activity” value was 48200.

For “RLLRLLLRLLRLLLLRLLLLLLLLLLLLLLLRLLLRLLVTLILFLNIQRVLIL”, the “transcriptional activation domain activity” value was 16300.

With “RLLRNLPLIAGHGPKYLQGIDKFVENEFLTVVGTWMRATKFDVLSFMIHYVTL” the “transcriptional activation domain activity” value was 65500.

For “RLLVTTYRMFFILVVTLNLIALALVTVGHFPYADNHIGVILLGNLLCAVMIRN”, the “transcriptional activation domain activity” value was 29800.

“RLMKKKKKSSLVFVFNHFRPVYVFLFFFSLYFFPFLSTPYFFPSFFFLFLFWV” was tested, and the “transcriptional activation domain activity” value was 49900.

“RLNFLLFCLSLFLSLYFFPFCLLFFLFSLSSFLFCLPSFLSLLSSFFFFFVSL” was tested, and the “transcriptional activation domain activity” value was 57200.

In the case of “RLPNEWGWVLNVHLCIFYTIAFCFSVYQFCLDVIIGFPQMPWLESLSLLLPVL”, the “transcriptional activation domain activity” value is reported as 37500.

With “RLPNNANSTTGLNDNDYNLDDTNNDNTNSMQSILEDFVSSEEALKFMPDAGRD” the “transcriptional activation domain activity” value was 30400.

In the case of “RLQRDGQAGAGRGEARGGRGPVAGGQGAQHAGPVRRHRRQRRAGHLHGRKQHQ”, the “transcriptional activation domain activity” value is reported as 32800.

In the case of “RLRAEGEEDAAAGNDQNKSGRKGGGVAMVGDGINDSPALAAASVGIALSTGSE”, the “transcriptional activation domain activity” value is reported as 29300.

“RLRKDVGPFSPDDIQKPSLTWIHVRRNNLLLMMAPVRSYTWKAAQTLGEIFGA” was tested, and the “transcriptional activation domain activity” value was 28000.

In the case of “RLRLSCYIMMCVVTSYSTWAIVSGYFTCVPVAKFWDPTIKGHCLNFQALWFFN”, the “transcriptional activation domain activity” value is reported as 61900.

With “RLRVLYSAWQLHVDGKVRIGTLAIIGSFKELRYLGGKRTRRCGLVALLLLSAY” the “transcriptional activation domain activity” value was 50700.

“RLRVWELGRNSWTVYKFNPDLFPFIDVYPWPRICRLLKCLVFVFRYLEIIRPL” was tested, and the “transcriptional activation domain activity” value was 51800.

In the case of “RLSASKIYIWCSGGVVFAIVLALQVLVLLALLNVITCLEGHMLSIHGWPRGEC”, the “transcriptional activation domain activity” value is reported as 31100.

“RLSSSSKSKRSLRHPQRALCSSRAWEEDGGGNPNGGRGFVVRIRRFGRARLHS” was tested, and the “transcriptional activation domain activity” value was 62500.

In the case of “RLSTFYNLNLIRVLFRFLFTLPLLILAHDFLLMLGALGCFVSSCITLLIFFPR”, the “transcriptional activation domain activity” value is reported as 63000.

With “RLVVLYGASRIVVAIKRAHGGFDYTRRLSDEEPMVRIMTVVVSYSRLILISVY” the “transcriptional activation domain activity” value was 53300.

In the case of “RLVYLMAKNKFGADAQQEFIGDYFRTDSATFRDVRVLFGLLSRSWFGRVWCIQ”, the “transcriptional activation domain activity” value is reported as 52200.

“RLWCFSRGFMLVNYNVLVLSCQLAWSSEFLMSFWTFVFVLILMLLYYFVWAHK” was tested, and the “transcriptional activation domain activity” value was 43700.

“RLWLVRGPFTELFRRFLFSNIRFTSKVTIISYIGTYYAIGAAWIMTTANYLAI” was tested, and the “transcriptional activation domain activity” value was 47600.

“RLWQLILCKLEHFHLGFFLLGSVNNIYFTYKILNDMFDIVLLGQDQQDNDDEL” was tested, and the “transcriptional activation domain activity” value was 60000.

For “RLYAVRLVIVILVMELTLHFLYVVAISKSKAWDGASPLELSMVGYFNLVIIWM”, the “transcriptional activation domain activity” value was 42900.

For “RLYLKGVVLTLWSLDTIHLICVCHALYWYLITNFLNAFVLEKLAWYRGWCPSH”, the “transcriptional activation domain activity” value was 68600.

For “RLYMLCTKIFLLLVGQRSEVGLTYASCITFMLCAAIPSESFVRNLVLLRVMLA”, the “transcriptional activation domain activity” value was 58400.

“RMGMTQELLALVTGLAHYLKILIRIALTGALKLERDYVLREAISSFLDKLHLL” was tested, and the “transcriptional activation domain activity” value was 69700.

“RMGRWKHGWRKWWWKFYKWCFLWMIEVIRVVKVVGIVIVGCIYLGLRFFIFVE” was tested, and the “transcriptional activation domain activity” value was 57000.

In the case of “RMIGLPILLWLGTLTCQIGLLVLLRSVVFGQTNSGNVLPWGLGFWALTISTNI”, the “transcriptional activation domain activity” value is reported as 71800.

With “RMLFPNVQELHWEAQNFEKSPLLNMFMGLHLTEIYFTFSAGSYAQMTWIPIMY” the “transcriptional activation domain activity” value was 33300.

“RMMREDYFPVARLFYCAFMLIHPHFEIPRFWQMGMHILHMLASLNYRPAILTM” was tested, and the “transcriptional activation domain activity” value was 68400.

In the case of “RMPKDCKSREFRDKAHDAVDAFAVDLEKRLRDENRPALLKLACLLMVLHQIEL”, the “transcriptional activation domain activity” value is reported as 58600.

“RMVYSIRLVFHLYAELLLDRAFFLEWFLSFFAECSLDVLPLAFPIATALWDDL” was tested, and the “transcriptional activation domain activity” value was 64600.

In the case of “RNEGEARKGEGGRMRVVGIRQRAEGKTRRRGRKRERGREGSERRGEGGGREQG”, the “transcriptional activation domain activity” value is reported as less than 6570.

In the case of “RNGDKDSGHSRHKDRRHEHRSERRRYSDEGEEDRHRSHRSSHRSSRRRSRSRS”, the “transcriptional activation domain activity” value is reported as 31900.

In the case of “RNGKRTRNARKLRKPRRSRRRGEEKKKPNASALKRQRRREKKQEEELRRKQKR”, the “transcriptional activation domain activity” value is reported as 47800.

With “RNIGTGPSAPGGVDHKRSRACESCRGLKVRCEPANEANLQGSCKRCAKAGRHC” the “transcriptional activation domain activity” value was 40400.

For “RNILLFTMVADGESSLVIWSIFYHFFLDDNSLGLLLAQCRKLVQISNDMQTWM”, the “transcriptional activation domain activity” value was 58900.

With “RNLAAAAAGATAVGLAAKAIHDHRARSRSRSSSASGSDRGHRHNAVLGLGAAG” the “transcriptional activation domain activity” value was 42100.

For “RNLGKLCSLHIEIRDPDLHRWNLVTLILVVHTLKSPFLERVCISFATYANIYG”, the “transcriptional activation domain activity” value was 42300.

With “RNLMVIVLVVGNLRLMIENLQKYGVLICLHCHDFRRSDILLGLGLYFLIPCHL” the “transcriptional activation domain activity” value was 64000.

In the case of “RNLMVIVLVVGNLRLVIENIQKYGVLICIRCHDFRQHDVMLGLLLYFLIPCHL”, the “transcriptional activation domain activity” value is reported as 53400.

With “RNMRALRKTWQSSASEDGGGGGEGDEHPHLEDLEYTSREWGAFAQGLKLLAVS” the “transcriptional activation domain activity” value was 70800.

For “RNSSLEEEDQVVAEGEVVGAAEEEGGEGEGREEVVVTEGREDMAVVGMAGMAD”, the “transcriptional activation domain activity” value was 35400.

In the case of “RNVEDCAATNGSLVPISMPGGKREENDRRVPRANVSKVIILGSGGLSIGQAGE”, the “transcriptional activation domain activity” value is reported as 44500.

With “RNVIRGCRKPLSSRYVFLMSVTRLVIPLYFYVCPYNIIALKPSKWIWLLVLYV” the “transcriptional activation domain activity” value was 62600.

“RNVYLSRFWYLSFYSGNQLRRDLNVIVGVGKNWNLPSWWAPILRYIAAPILSI” was tested, and the “transcriptional activation domain activity” value was 75600.

In the case of “RPAAVLARQRERERARDARARAVRGAAPVAAAVAVRRVARHVCVACACAAAAA”, the “transcriptional activation domain activity” value is reported as 60400.

With “RPAPAKSKARSSRKAVVEEPEIPQAQEEEEDVKPVIRGRKKRVSIAEPEKPKR” the “transcriptional activation domain activity” value was 35300.

For “RPDVVLIQAGLWARFWLFIVISHALLEYHTFADGICLCYVSTVVFLIRHAKLW”, the “transcriptional activation domain activity” value was 68100.

For “RPEEAPSTDEEESRGECWSEGKLCLENYMRLNDLEPENSDPEQLAHVKELLEK”, the “transcriptional activation domain activity” value was 47500.

In the case of “RPFLLNCKDINQFTNLIWERIRITNGTKMYWVWQHLRCVVMFFTLQPNQRILL”, the “transcriptional activation domain activity” value is reported as 83700.

For “RPKVQPFWVIDLFVPYRPLLSFVSDLYFAYQAWTQLTGLTVTLFYFSIWKLAL”, the “transcriptional activation domain activity” value was 58500.

For “RPLSEASRDLALPSVTRVWCDEKDNIFYMQDVNFVTDITKVLLVSVLSTVARC”, the “transcriptional activation domain activity” value was 47600.

With “RPPPPSAAAEPAADAPATEEAKPGHEKKEKTEKKPKEKAKKAEKKEEVCAAAT” the “transcriptional activation domain activity” value was less than 6570.
